± gives the uncertainty stated by the source.

A short description of this series: abundance fitness (aPCA) (normalised: wild type 0, dead -1); higher = more abundant; growth selection in yeast, the domain comes from the species named. Conditions: Homo sapiens.
Turning to “NEDD4-like E3 ubiquitin-protein ligase WWP2 T483C, O00308”, the abundance fitness was -0.005 ± 0.063.

For the substance “NEDD4-like E3 ubiquitin-protein ligase WWP2 T483D, O00308”, the abundance fitness was -0.039 ± 0.06.

Substance “NEDD4-like E3 ubiquitin-protein ligase WWP2 T483E, O00308” had an abundance fitness of -0.032 ± 0.057.

With “NEDD4-like E3 ubiquitin-protein ligase WWP2 T483F, O00308”, the abundance fitness was -0.377 ± 0.072.

As to “NEDD4-like E3 ubiquitin-protein ligase WWP2 T483G, O00308”, the abundance fitness is -0.01 ± 0.032.

“NEDD4-like E3 ubiquitin-protein ligase WWP2 T483I, O00308”: the abundance fitness is -0.056 ± 0.038.

“NEDD4-like E3 ubiquitin-protein ligase WWP2 T483K, O00308” came in with an abundance fitness of 0.084 ± 0.071.

With “NEDD4-like E3 ubiquitin-protein ligase WWP2 T483L, O00308”, the abundance fitness was -0.039 ± 0.044.

“NEDD4-like E3 ubiquitin-protein ligase WWP2 T483M, O00308” returned an abundance fitness of -0.073 ± 0.055.

Take “NEDD4-like E3 ubiquitin-protein ligase WWP2 T483N, O00308”: the abundance fitness was -0.247 ± 0.076.

With “NEDD4-like E3 ubiquitin-protein ligase WWP2 T483P, O00308”, the abundance fitness was -0.054 ± 0.071.

Take “NEDD4-like E3 ubiquitin-protein ligase WWP2 T483Q, O00308”: the abundance fitness was -0.106 ± 0.071.

Substance “NEDD4-like E3 ubiquitin-protein ligase WWP2 T483R, O00308” gave an abundance fitness of -0.121 ± 0.056.

Substance “NEDD4-like E3 ubiquitin-protein ligase WWP2 T483S, O00308” came in with an abundance fitness of 0.004 ± 0.042.

In the case of “NEDD4-like E3 ubiquitin-protein ligase WWP2 T483V, O00308”, the abundance fitness is -0.03 ± 0.052.

In turn, “NEDD4-like E3 ubiquitin-protein ligase WWP2 T483W, O00308” gave an abundance fitness of -0.163 ± 0.063.

“NEDD4-like E3 ubiquitin-protein ligase WWP2 T483Y, O00308” registered an abundance fitness of -0.123 ± 0.059.

In turn, “NEDD4-like E3 ubiquitin-protein ligase WWP2 V459A, O00308” yielded an abundance fitness of -0.107 ± 0.051.

Substance “NEDD4-like E3 ubiquitin-protein ligase WWP2 V459C, O00308” registered an abundance fitness of -0.11 ± 0.065.

As for “NEDD4-like E3 ubiquitin-protein ligase WWP2 V459D, O00308”, the abundance fitness was determined as 0.05 ± 0.062.

In turn, “NEDD4-like E3 ubiquitin-protein ligase WWP2 V459E, O00308” came in with an abundance fitness of 0.085 ± 0.036.

Substance “NEDD4-like E3 ubiquitin-protein ligase WWP2 V459F, O00308” had an abundance fitness of -0.387 ± 0.094.

“NEDD4-like E3 ubiquitin-protein ligase WWP2 V459G, O00308”: the abundance fitness was -0.111 ± 0.051.

“NEDD4-like E3 ubiquitin-protein ligase WWP2 V459H, O00308” gave an abundance fitness of -0.103 ± 0.064.

“NEDD4-like E3 ubiquitin-protein ligase WWP2 V459I, O00308” came in with an abundance fitness of -0.106 ± 0.072.

Turning to “NEDD4-like E3 ubiquitin-protein ligase WWP2 V459K, O00308”, the abundance fitness was -0.077 ± 0.063.

For “NEDD4-like E3 ubiquitin-protein ligase WWP2 V459L, O00308”, the abundance fitness was -0.073 ± 0.04.

With “NEDD4-like E3 ubiquitin-protein ligase WWP2 V459M, O00308”, the abundance fitness is -0.07 ± 0.05.

For “NEDD4-like E3 ubiquitin-protein ligase WWP2 V459N, O00308”, the abundance fitness was -0.024 ± 0.076.

Take “NEDD4-like E3 ubiquitin-protein ligase WWP2 V459P, O00308”: the abundance fitness is -0.878 ± 0.037.

“NEDD4-like E3 ubiquitin-protein ligase WWP2 V459Q, O00308” registered an abundance fitness of -0.019 ± 0.069.

“NEDD4-like E3 ubiquitin-protein ligase WWP2 V459R, O00308” showed an abundance fitness of -0.127 ± 0.051.

For “NEDD4-like E3 ubiquitin-protein ligase WWP2 V459S, O00308”, the abundance fitness was -0.097 ± 0.045.

Substance “NEDD4-like E3 ubiquitin-protein ligase WWP2 V459T, O00308” registered an abundance fitness of -0.025 ± 0.059.

As to “NEDD4-like E3 ubiquitin-protein ligase WWP2 V459W, O00308”, the abundance fitness was -0.18 ± 0.07.

Substance “NEDD4-like E3 ubiquitin-protein ligase WWP2 V459Y, O00308” registered an abundance fitness of -0.335 ± 0.071.

As to “NEDD4-like E3 ubiquitin-protein ligase WWP2 V463A, O00308”, the abundance fitness is -0.136 ± 0.036.

In turn, “NEDD4-like E3 ubiquitin-protein ligase WWP2 V463C, O00308” displayed an abundance fitness of -0.307 ± 0.086.

The substance “NEDD4-like E3 ubiquitin-protein ligase WWP2 V463E, O00308” registered an abundance fitness of -0.16 ± 0.056.

The substance “NEDD4-like E3 ubiquitin-protein ligase WWP2 V463F, O00308” returned an abundance fitness of -0.288 ± 0.039.

“NEDD4-like E3 ubiquitin-protein ligase WWP2 V463G, O00308” showed an abundance fitness of -0.972 ± 0.039.

The substance “NEDD4-like E3 ubiquitin-protein ligase WWP2 V463H, O00308” came in with an abundance fitness of -0.422 ± 0.093.

Turning to “NEDD4-like E3 ubiquitin-protein ligase WWP2 V463I, O00308”, the abundance fitness is -0.165 ± 0.072.

On to “NEDD4-like E3 ubiquitin-protein ligase WWP2 V463K, O00308”, for which the abundance fitness is -0.466 ± 0.062.

“NEDD4-like E3 ubiquitin-protein ligase WWP2 V463L, O00308”: the abundance fitness is -0.041 ± 0.035.

“NEDD4-like E3 ubiquitin-protein ligase WWP2 V463N, O00308” had an abundance fitness of -0.386 ± 0.056.

On to “NEDD4-like E3 ubiquitin-protein ligase WWP2 V463P, O00308”, for which the abundance fitness is -1.29 ± 0.47.

For “NEDD4-like E3 ubiquitin-protein ligase WWP2 V463Q, O00308”, the abundance fitness is -0.129 ± 0.08.

Substance “NEDD4-like E3 ubiquitin-protein ligase WWP2 V463R, O00308” returned an abundance fitness of -0.352 ± 0.038.

The substance “NEDD4-like E3 ubiquitin-protein ligase WWP2 V463T, O00308” had an abundance fitness of -0.209 ± 0.069.

Consider “NEDD4-like E3 ubiquitin-protein ligase WWP2 V463W, O00308”, for which the abundance fitness is -0.414 ± 0.068.

“NEDD4-like E3 ubiquitin-protein ligase WWP2 V463Y, O00308” displayed an abundance fitness of -0.26 ± 0.076.

Substance “NEDD4-like E3 ubiquitin-protein ligase WWP2 W450C, O00308” registered an abundance fitness of -0.446 ± 0.051.

Turning to “NEDD4-like E3 ubiquitin-protein ligase WWP2 W450D, O00308”, the abundance fitness was -0.552 ± 0.041.

The substance “NEDD4-like E3 ubiquitin-protein ligase WWP2 W450E, O00308” gave an abundance fitness of -0.492 ± 0.042.

In turn, “NEDD4-like E3 ubiquitin-protein ligase WWP2 W450F, O00308” returned an abundance fitness of -0.026 ± 0.075.

“NEDD4-like E3 ubiquitin-protein ligase WWP2 W450H, O00308” yielded an abundance fitness of -0.464 ± 0.085.

Source of the values: the Human Domainome abundance scans (Beltran et al. 2025).
